This is an account of results in the nanobody polyreactivity screen of Harvey et al. (2022).

The series is described as follows: yeast display, Sf9 membrane polyspecificity reagent, FACS + sequencing; frameworks hold sequencing errors. In outline: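 Sorting gates, low and high (top ~1%), were placed on anti-HA fluorescence to track expression and on streptavidin fluorescence to track reagent binding. A clone's polyreactivity label is taken from the gate it came out of. The reagent was 10% biotinylated, detergent-solubilized Sf9 membrane, applied for 1 hour at 4 °C to galactose-induced yeast display cells.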
For the sequence “QLQLVESGGGLVQAGGSLRLSCAASGLTSPGNAMGWYRQAPGKEMELVAAISSGGNTYYADSVKGRFTISRDNAKNTVYLQMNSLKPEDTAVYYCNAGGGTNYGSGYWFGYYYWGQGSQVTVSS”, the “polyreactivity (PSR sort gate)” value is on record as “low polyreactivity”.

On to “QVQLVESGGGLVQAGGSLRLSCAASGSIFPYNVMGWYRQAPGKERELVASIDGRGASTYYADSVKGRFTISRDNAKNTVYLQKNSLKPEDTAVYYCAAGYEPYAAWYYYWGQGTQVTVAS”, for which the “polyreactivity (PSR sort gate)” value is “low polyreactivity”. Under “QVQLVESGGGLVQAGGSLRISCAASGLTFTSNVMGWYRQAPGKERELVAAISSGGSTYYADSVKGRFTISRDNAKNTVYLQMNSLKPEDTAVYYCNTKLWGQYDYWGQGTQVTVSS” stands “low polyreactivity”; under “QVQHVESGGGLVQAGGSLRLSCAASGRIFGSNAMGWYRQPPGKDRELVAAITWSGGSTYYADSVKGRFTISRDNAKNTVYLQMNSLKPEDTAVYDCAAPASRTKGPFPGYDYWGQGTQVTVSS”, “high polyreactivity”. Take “QVQLVESGGGLVQAGGSLRLSCAASGSTFSYYDMGWYRQAPGKERELVAAISWNGGTTYYADSVKGRFTISRDNAKNTVYLQMNSLKPEDTAVYYCAATWDFYWAPYDSWGQGTQVTVSS”: the “polyreactivity (PSR sort gate)” value was “low polyreactivity”. Under “QVQLVESGGGLVQAGGSLRLSCAASGITFWYYAMGWYRQAPGKERELVAVISRGGSTYYADSVKGRFTISRDNAKNTVYLQMNSLKPEDTAVYYCAADVSVSGYYYWGQGTQVTVSS” stands “high polyreactivity”; under “QVQLVESGGGLVQAGGSLRISCAASGFSFVWYAMGWYRQAPGKERELVAAINWSGGHTYYADSVKGRFTISRDNAKNTVYLQMNSQKPVETAVYYCNADSLWYWFYPYNYWGQGTQVTVSS”, “low polyreactivity”; under “QVQLVESGGGLVQAGGSLSLSCDASGSTFYTYAMGWSRQEPGKERELVAAITSSGGSTYYADSVKGRFTISRDNAKNTVYLLMNSLKPEDTAVYYCAARVLGGFGFWGQGTQVTVSS”, “high polyreactivity”. For “QVQLVESGGGLVQAGGSLRLSCAASGFTLRVNDMGWYRQAPGKERELVAGITVSGGSTYYADSVKGRFTISRDNAKNTVYLQMNSLKPEDTAVYYCNADNYENATGMDYWGQGTQVTVSS” the value was “low polyreactivity”. For the sequence “QVQLVESGGGLVQAGGSLRISCAASGITFVPNAMGWYRQAPGKERELVAAITGNGGRTYYADSVKGRFTISRDNAKNTVYLQMNSLKPEDTAVYYCNARKLYWAYTLRKYDYWGQGTQVTVSS”, the “polyreactivity (PSR sort gate)” value is listed as “high polyreactivity”. For “QVQLVESGGRLVQAGGSLRLSCAASGLTFSGYAMGWYRQAPGKERELVAAISGGGGSTYYADSVKGRFTISRDNAKNTVYLQMNSLKPEDTAVYYCAARPRWYTYTRQEYDYWGQGTQVTVSS” the value was “high polyreactivity”; for “QVQLVESGGGLVQAGGSLRLSCAASGSIFGGDGMGWYRQAPGKERQLVAAITSGSSTYYADSVKGRFTISRDNAKNTVYLQLNILKPEDTAVYYCAARPYPHSAYEGDYWGRGTQVTVSS”, “low polyreactivity”. For “QVQLEESGGGLVQAGGSLRLSCAASGSTYACYYMGWYIQAPGTEREFVAAIDYGGGSTYADSVQGRFTISRDNAKITVYLQMNSLKPEDTAVYYCYADNWVYLYVYWGQGTQVTVSS” the value was “low polyreactivity”; for “KVQLVETGRGLVQAGGSLRISCAASGSTFGANAMVWYIQAPGKERELVAAITVRGGSTYYADSVKCRFTISRDNAKNNVYLQMISLKPEETAVYYCAARWACSTNSYYYWGQGTQVTVSS”, “high polyreactivity”. Regarding “QVQLVESGGGLVQAGGSLRLSCAASGRTFVYNAMGWYRQAPGKERELVAAIDGGGDRTYYADSVKGRFTISRDNAKNTVYLQMNSLKPEDTAVYYCARDPGDTYYYSYPEGDYWGLGTQVTVSS”, the “polyreactivity (PSR sort gate)” value is recorded as “low polyreactivity”. As for “QVQLVESGGGLVQAGGSLRLSCAAYGITFRAYAMGWYRQAPGKEREFVASISGSGGSTYSADSVKGRFTISRDNAKNTVYFQMNSLKPEDTAVYYCATRRWGLATPTRYDYWGQGTQVTVSS”, the “polyreactivity (PSR sort gate)” value is “high polyreactivity”. For “QVQLVESGGGLFQAGGSLRLSCAASGSTFYAYAIGWYRQAPGKERELVAAITLSGGSTYYADSVKGRFTISRDNAKNTVYLQMNSLKPEDTAVYYCAADQLRCGDYYWGQGTQVTVSS” the value was “high polyreactivity”; for “QVQLVESGGGLVQAGGSLRLSCAASGRTFYAYAMGWYRQAPGKERELVATISSSDASTYYADSVKGRFTISRDNAKNTVNLQMNSLKPEETAVYYCNADFVRPSWARGRNNGLYYWGQGTQVTVSS”, “low polyreactivity”; for “QVQLVESGGVLVQAGGSLRLSCAASGSTFPRNAMGWYRQAPGKERELVAAISGRGVRTYYADSVKGRFTISRDNAKNTVYLQMNSLKPEDTAVYYCAAERQPYRTSSYNYWGQGTQVTVSS”, “high polyreactivity”. “QVQLVESGGGLVQAGGSLRLSCAASGGTIYDNTMGWYRQAPGKERELVAAISRDGSTNYADSVKGRFTISRDNAKNTVYLQMNSLKPEDTAVYYCNKDPVSEYRSPGFPVTYDYWGQGTQVTVSS”: the “polyreactivity (PSR sort gate)” value was “low polyreactivity”. As to “QVQLVESGGGLVQAGGSLRLSCAASGSTFDVYAMGWYRQAPGKERELVAAISLGTGITYYADSVKGRFTISRDNAKNTVYFQMNSLKPEDTAVYYCAVAIETGYGAYDGYIYYYWGQGTQVTVSS”, the “polyreactivity (PSR sort gate)” value is listed as “high polyreactivity”. Under “QVQLVESGGGLVQAGGSLRLSCAASGSIFKYYAMGWYRQAPGKERELVAAISSNGGRTYYADSVKGRFTISRDNAKNTVYLQMNSLKPEDTAVYYCNVVVKGAWDYYPYDYWGQGTQVTVSS” stands “high polyreactivity”; under “QVQLVESGGGLVQAGGSLRLSCAASGSIFTRNTMGWYRQAPGKERELVAAINRSGGRTYYADSVKGRFTISRDNAKNSVYLTMNSLKPEDTAVYYCAAYTQGSRYDYWGQGTQVTVSS”, “high polyreactivity”.

Regarding “QVQLVESGGGLVQAGGSLRLSCAAWSIFYLNAMGWYRQAHGKERELVAAISSAGSTYYADSVKGRFTISRDNAKKTVYLHMNSLKPEDTAVYYCAAYWYDSPGVTEIWYDYWGQGTQVTVSS”, the “polyreactivity (PSR sort gate)” value is reported as “low polyreactivity”. For “QVQLVESGGGLVQAGGSLRLSCAASGRIFYVYAMGWSRQAPGKERELVAAITSGGRTYYADSVKGRFTISRDNAKNTVYLQMNSLKPEDTAVYYCAARASSYNYWGQGTQVTVSS” the value was “high polyreactivity”; for “QVQLVESGGGLVQAGGRLRLSCAASGSTFSYYAMGWYRHAPGKERELVAAITSSGSRTYYADSVKGRFTISRDKAKNTVYLQMNSLKPEDTAVYYCAAVYVYRTSYLISLYDYGYWGQGTQVTVSS”, “high polyreactivity”; for “QVQLVESGGGLVQAGGSLRLSCAASGRTFDRYAMGWYRQAPGKERELVAAISSGTSTNYADSVKGRFTISRDNAKNTVSLQMNSLKPEDTAVYYCNVDSPLQPYRYYYWGQGTQVTVSS”, “low polyreactivity”. Turning to “QVQIVESGGGLFQAGGSLRLSSAASGNTFDKYAMGWYRQAPGKEREMVAAISSGGRTYYADSVKGRFTISRDNAKNTVYLQMNSLKPEDTAVYYCGKGSAGRGMDSWGQGTQVTVSS”, the “polyreactivity (PSR sort gate)” value is listed as “low polyreactivity”. Under “QVHLVESGGGLVQAGGSLRLICAASGFIFPRTAMGSYRQAPGKERELVAAISVSGGSTYYADSVKGRFTISRDYAKNTVYLQMNSLKPEDTAVYYCAKRTWDLRRTRHYYWGQGNQVTVSS” stands “low polyreactivity”; under “QLQLVESGGGLVQAGGSLRLSCAASGFTFKYNARGWYSQAPGKARELVASISSGSTTYADSVKGRFTISRDNAKNTVYLQINSLKPEDTAVYYCAASVSRGKRFRYGYVFKMDHWGQGTQVTVSS”, “low polyreactivity”.
